Biological target: recombinant leucyl aminopeptidase of T. cruzi (rLAPTc), N-terminal His-tag (Trypanosoma cruzi)
Assay: AUC + SEC; sedimentation velocity of rLAPTc at 170, 56 and 10 μM, 25 mM Tris pH 8.0, 150 mM NaCl, 10°C, 42,000 rpm; s-values combined with Stokes radii from calibrated SEC (SEC-AUC method)

Which stoichiometry N (species eluting at 9 ml) does the source give for “recombinant leucyl aminopeptidase of T. cruzi (rLAPTc), N-terminal His-tag (enzyme)” here?
Its stoichiometry N is 10.1 subunits.

What about the stoichiometry N (species eluting at 10 ml) of the same substance?
Its stoichiometry N is 5.6 subunits.
